Experiment [1] addresses T1, human 5T4-His protein (human, UniProt Q13641 32-355).
T1 construct: also called recombinant 5T4 protein (human 5T4-his tag); human 5T4 protein; not shown: His tag
T1 sequence (looked up): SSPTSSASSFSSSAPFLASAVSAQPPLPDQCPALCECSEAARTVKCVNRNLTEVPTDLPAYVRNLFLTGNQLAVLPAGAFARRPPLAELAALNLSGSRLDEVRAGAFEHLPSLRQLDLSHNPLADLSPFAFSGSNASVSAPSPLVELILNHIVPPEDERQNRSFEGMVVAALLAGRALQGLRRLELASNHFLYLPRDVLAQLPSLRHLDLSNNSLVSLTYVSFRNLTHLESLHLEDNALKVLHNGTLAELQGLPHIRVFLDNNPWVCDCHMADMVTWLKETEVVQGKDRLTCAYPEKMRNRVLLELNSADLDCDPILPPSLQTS
The experiment can be described thus: ELISA, coated antigen. (In an ELISA, binding on a coated surface is turned into a signal by an enzyme label.)

The target in the next experiment is T2, cynomolgus 5T4 protein (cynomolgus monkey, UniProt Q4R8Y9 35-355, limits assumed).
T2 construct: Coated protein in ELISA; the screening step names a cyno 5T4-His protein; also called cyno 5T4; recombinant cyno 5T4-His protein
T2 sequence (looked up): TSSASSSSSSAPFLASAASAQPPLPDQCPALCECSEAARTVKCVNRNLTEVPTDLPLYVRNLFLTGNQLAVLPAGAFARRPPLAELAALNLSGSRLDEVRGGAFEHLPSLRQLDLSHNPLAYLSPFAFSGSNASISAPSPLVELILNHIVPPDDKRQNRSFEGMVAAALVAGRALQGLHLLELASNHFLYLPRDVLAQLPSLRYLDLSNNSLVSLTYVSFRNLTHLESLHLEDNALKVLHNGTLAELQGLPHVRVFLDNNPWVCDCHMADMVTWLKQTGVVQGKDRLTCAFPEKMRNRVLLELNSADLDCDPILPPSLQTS
Description: ELISA, coated antigen.

In experiment [2] the target is T1, human 5T4-His protein. The experiment can be described thus: SPR Biacore, Protein A capture. A digest of the protocol:
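Antibodies captured on a Protein A chip on Biacore T200; serial dilutions of His-tagged human 5T4 injected 2-3 min at 30 μl/min, dissociation 360-1000 s.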
On the technique in general: In SPR one partner is held on a chip, and binding of the other changes the refractive index at the surface.

In experiment [3] the target is T1, human 5T4-His protein. Description: competitive ELISA, coated human 5T4, vs 267B5-biotin.
Experiment [4] has as its target T1, human 5T4-His protein. Described as above. The source holds these as a separate data set.
Experiment [5] has as its target T1, human 5T4-His protein. Description: ELISA, coated 5T4-His. How it is done: To evaluate the binding activity of 159D5 humanized antibodies to human 5T4, the 159D5 chimeric antibody along with 159D5 humanized mAbs were subjected to ELISA test.
Briefly, microtiter plates were coated with human 5T4-His protein at 1 μg/ml in PBS, 100 μl/well at 4° C. overnight, then blocked with 150 μl/well of 10% BSA. Serial dilutions of antibodies were added to each well and incubated for 1 hour at 37° C. The plates were washed with PBS/Tween and then incubated with Goat Anti-Human IgG-HRP for 30 mins at 37° C. After washing, the plates were developed with TMB substrate and analyzed by spectrophotometer at OD 450 nm. As shown in FIG. 14 and Table 12, most of the humanized antibodies bound to human 5T4 with high activity.

For experiment [6], the target named is T1, human 5T4-His protein. The experiment can be described thus: SPR Biacore, Protein A capture, 50 nM 5T4-His. How it is done: The binding of the 159D5 humanized antibodies to recombinant 5T4 protein (human 5T4-his tag) was tested with Biacore using a capture method. The mAbs were captured using Protein A chip. 50 nM of human 5T4-his tag protein was injected over captured antibody for 3 mins at a flow rate of 30 μl/min. The antigen was allowed to dissociate for 600 s. All the experiments were carried out on a Biacore T200. Data analysis was carried out using the Biacore T200 evaluation software.

Experiment [7] concerns the target T1, human 5T4-His protein. The experiment can be described thus: competitive ELISA, coated human 5T4, vs 159D5-biotin.
Experiment [8] deals with T1, human 5T4-His protein. The description is as above. This is another data set of the same source.
Experiment [9] deals with T1, human 5T4-His protein. The experiment is described as above. This is another data set of the same source.

Where “and” joins values, the source holds several entries; their conditions need not be identical. Equal values may be shown once.

B1: 267B5 chimeric antibody (antibody, V domains shown)
VH: DVQFQESGPGLVKPSQSLSLTCSVTGYSITSSYYWNWIRQFPGDKLEWMGYISYDGSNNYNPSLKNRISITRDTSKKQFFLKLNSVTTEDTATYYCARSWDGGYAMDNWGQGTSVTVSS
VL: SIVMTQTPKFLLVSAGDRVTITCKASQSVSNDVAWYQQKPGQSPKLLIYFASNRYTGVPDRFTGSGYGTVFTFTISTVQADDLAVYFCQQDYTSPWTFGGGTRLEIK
notes: chimeric mAb
As usually defined, the EC50 is the concentration at which the effect is half-maximal. A higher EC50 goes with a need for much substance. As usually defined, the Kd is the equilibrium constant for the complex coming apart. A higher Kd goes with a looser complex. What is called koff is the rate constant with which the complex falls apart. Low readings indicate slow dissociation, high ones fast dissociation. What is called kon is the second-order rate constant of association. Take B1: a half-maximal response in the experiment with human 5T4-His protein [1] (EC50) required 0.31 nM. The response with cynomolgus 5T4 protein was half-maximal at 0.17 nM (EC50). In the experiment with human 5T4-His protein [2], this molecule showed a Kd of 1.62 nM, a koff of 0.000255 s⁻¹ and a kon of 158000 M⁻¹ s⁻¹. Besides, in the experiment with human 5T4-His protein [3], the “IC50 (read off the curve)” value was about 10 nM. In addition, the “IC50 (read off the curve)” value with human 5T4-His protein [4] was about 5 nM.

B2: 159D5 chimeric antibody (antibody, V domains shown)
VH: DVQLVESGGGLVQPGGSRKLSCTASGFTFSNFGMHWVRQAPETGLEWVAYISSGSSTFYYADSVKGRFTISRDNPKNTLFLQMTSLRSEDTAMYFCARSPAYYRYGLDYWGQGTTLTVSS
VL: DIVLTQSPASLAVSLGQRATISCRASQSVSSSTFSYMHWYQQKPGQPPKLLIKSSSNLESGVPARFSGSGSGTDFTLNIHPVEEEDTATYYCQHSWEIPYTFGGGTKLEIK
notes: chimeric mAb
In the case of B2, the 50% effective concentration (EC50) in the experiment with human 5T4-His protein [1] was 0.24 nM and 0.2 nM and 0.39 nM; with cynomolgus 5T4 protein, 0.18 nM and 0.19 nM and 0.2 nM and 0.11 nM; with human 5T4-His protein [5] it was 0.13 nM. For the same molecule, the results for the Kd in the experiment with human 5T4-His protein [2] and in the experiment with human 5T4-His protein [6] were 0.206 nM and 0.618 nM, respectively. Moreover, the koff is 0.00024 s⁻¹ in the experiment with human 5T4-His protein [2] and 0.000204 s⁻¹ with human 5T4-His protein [6]. Also, the kon worked out at 1.16e+06 M⁻¹ s⁻¹ with human 5T4-His protein [2] and 330000 M⁻¹ s⁻¹ with human 5T4-His protein [6]. The results for the “IC50 (read off the curve)” value with human 5T4-His protein [7], with human 5T4-His protein [8] and with human 5T4-His protein [9] were about 5 nM, about 5 nM and about 4 nM, respectively.

For the origin of these results see patent US20250154277A1 (CONCEPT TO MEDICINE BIOTECH, published 2025).
